Data taken from publication PMC4284738, “14-3-3 Proteins Participate in Light Signaling through Association with PHYTOCHROME INTERACTING FACTORs” (International Journal of Molecular Sciences, 2014).
Numbering of substitutions follows the chain as printed.

Assays:
Experiment in all cases: pull-down; 0.3–20 µg of His-14-3-3κ incubated with MBP or MBP-PIFs in MBP column buffer at 4 °C in dark for 5–6 h, then amylose resin overnight; elution with 10 mM maltose; blot with anti-His and anti-MBP
Conditions in all cases: both partners purified
[1] = molecular target: T1, maltose-binding protein (MBP)-tagged PIF3 (Arabidopsis thaliana, UniProt O80536 1-524)
T1 construct: Transcription factor PIF3, Arabidopsis thaliana, AGI AT1G09530; also called MBP-PIF3; source: E. coli BL21 (DE3), purified (amylose resin)
T1 sequence (looked up): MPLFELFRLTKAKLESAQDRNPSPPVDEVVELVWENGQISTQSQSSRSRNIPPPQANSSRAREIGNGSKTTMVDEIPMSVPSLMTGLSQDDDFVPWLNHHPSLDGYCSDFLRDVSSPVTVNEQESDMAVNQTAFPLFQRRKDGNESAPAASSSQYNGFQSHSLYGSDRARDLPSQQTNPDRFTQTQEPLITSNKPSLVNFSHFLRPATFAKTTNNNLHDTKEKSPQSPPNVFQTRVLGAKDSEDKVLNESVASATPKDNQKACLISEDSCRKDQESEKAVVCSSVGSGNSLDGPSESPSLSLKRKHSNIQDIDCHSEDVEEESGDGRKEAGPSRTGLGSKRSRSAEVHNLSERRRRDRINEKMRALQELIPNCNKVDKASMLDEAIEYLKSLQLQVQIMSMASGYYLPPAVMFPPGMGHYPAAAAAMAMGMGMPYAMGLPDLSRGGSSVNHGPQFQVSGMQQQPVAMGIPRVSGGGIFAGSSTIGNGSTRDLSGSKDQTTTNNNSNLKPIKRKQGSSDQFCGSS

[2] = molecular target: T2, MBP-PIF3ala1+2 (PIF3 S23A S115A S116A) (Arabidopsis thaliana, UniProt O80536 1-524, S23A | S115A | S116A)
T2 construct: Transcription factor PIF3, Arabidopsis thaliana, AGI AT1G09530; ala1: Ser-23 to Ala; ala2: Ser-115 and Ser-116 to Ala; The cloning of the mutant into pMAL is not described on its own; source: E. coli BL21 (DE3), purified (amylose resin)
T2 sequence (looked up): T1 sequence (looked up) with S23A, S115A, S116A

MBP-PIF1 = molecular target: T3, MBP-PIF1 (Arabidopsis thaliana, UniProt Q8GZM7 1-478)
T3 construct: Transcription factor PIF1, Arabidopsis thaliana; source: E. coli BL21 (DE3), purified (amylose resin)
T3 sequence (looked up): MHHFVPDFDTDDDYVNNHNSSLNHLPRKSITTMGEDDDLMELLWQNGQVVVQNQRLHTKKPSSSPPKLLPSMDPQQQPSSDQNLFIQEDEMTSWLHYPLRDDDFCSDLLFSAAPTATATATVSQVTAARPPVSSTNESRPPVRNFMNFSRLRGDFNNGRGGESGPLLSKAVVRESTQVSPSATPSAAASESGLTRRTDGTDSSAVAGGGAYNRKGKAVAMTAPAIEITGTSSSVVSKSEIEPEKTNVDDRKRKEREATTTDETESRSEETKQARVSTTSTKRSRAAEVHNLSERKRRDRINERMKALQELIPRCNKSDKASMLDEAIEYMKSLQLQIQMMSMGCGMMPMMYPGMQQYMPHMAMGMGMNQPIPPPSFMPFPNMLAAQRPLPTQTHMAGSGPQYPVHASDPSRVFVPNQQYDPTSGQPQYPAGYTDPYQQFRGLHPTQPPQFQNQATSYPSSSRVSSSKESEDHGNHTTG

Measured: binding result

B1: His-tagged 14-3-3κ (natural protein, Arabidopsis thaliana, UniProt P48348 1-248, looked up)
chain: MATTLSRDQYVYMAKLAEQAERYEEMVQFMEQLVSGATPAGELTVEERNLLSVAYKNVIGSLRAAWRIVSSIEQKEESRKNEEHVSLVKDYRSKVETELSSICSGILRLLDSHLIPSATASESKVFYLKMKGDYHRYLAEFKSGDERKTAAEDTMIAYKAAQDVAVADLAPTHPIRLGLALNFSVFYYEILNSSEKACSMAKQAFEEAIAELDTLGEESYKDSTLIMQLLRDNLTLWTSDMQEQMDEA
notes: 14-3-3 kappa isoform, Arabidopsis thaliana; also called HIS-14-3-3κ; His-14-3-3κ
binds: all assays above
